{"source": "paper PMC3124363", "key": {"[1]": {"target": "Cdk2/cyclin A complex (full length human Cdk2 with truncated human cyclin A, residues 173–432) (human) (UniProt P24941)", "assay": "ITC"}, "[2]": {"target": "cyclin A (Homo sapiens) (UniProt P20248)", "sequence (P20248 whole entry)": "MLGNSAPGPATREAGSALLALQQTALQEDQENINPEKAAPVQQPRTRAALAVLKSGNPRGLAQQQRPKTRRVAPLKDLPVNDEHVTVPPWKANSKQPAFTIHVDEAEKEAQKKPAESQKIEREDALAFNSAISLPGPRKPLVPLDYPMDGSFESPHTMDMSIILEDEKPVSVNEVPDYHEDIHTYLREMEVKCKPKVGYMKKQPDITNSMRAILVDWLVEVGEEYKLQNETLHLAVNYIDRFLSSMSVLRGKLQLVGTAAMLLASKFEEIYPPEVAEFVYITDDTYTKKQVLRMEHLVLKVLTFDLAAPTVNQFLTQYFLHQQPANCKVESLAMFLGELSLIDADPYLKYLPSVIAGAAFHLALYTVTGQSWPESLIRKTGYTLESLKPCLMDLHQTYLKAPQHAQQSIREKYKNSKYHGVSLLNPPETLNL", "conditions": "cited from earlier work"}, "[3]": {"target": "Cdk2 (Homo sapiens) (UniProt P24941)", "conditions": "cited from earlier work"}}, "data": [{"substance": "sub-domain D1 of p21 (domain or fragment)", "values": [{"measurement": "Kd", "setting": "[1]", "result": 61, "unit": "nM"}]}, {"substance": "p27 D1 (from UniProt P46527)", "values": [{"measurement": "Kd", "setting": "[2]", "result": 25, "unit": "nM"}]}, {"substance": "p27 D2 (from UniProt P46527)", "values": [{"measurement": "Kd", "setting": "[3]", "result": 70, "unit": "nM"}]}]}
